# Results published in patent US20260258452, “RNA-GUIDED NUCLEASES AND ACTIVE FRAGMENTS AND VARIANTS THEREOF AND METHODS OF USE” (Life Edit Therapeutics, Inc., published 2026).
# T1: APG02998 (Enterococcus sp.)
# T1 chain: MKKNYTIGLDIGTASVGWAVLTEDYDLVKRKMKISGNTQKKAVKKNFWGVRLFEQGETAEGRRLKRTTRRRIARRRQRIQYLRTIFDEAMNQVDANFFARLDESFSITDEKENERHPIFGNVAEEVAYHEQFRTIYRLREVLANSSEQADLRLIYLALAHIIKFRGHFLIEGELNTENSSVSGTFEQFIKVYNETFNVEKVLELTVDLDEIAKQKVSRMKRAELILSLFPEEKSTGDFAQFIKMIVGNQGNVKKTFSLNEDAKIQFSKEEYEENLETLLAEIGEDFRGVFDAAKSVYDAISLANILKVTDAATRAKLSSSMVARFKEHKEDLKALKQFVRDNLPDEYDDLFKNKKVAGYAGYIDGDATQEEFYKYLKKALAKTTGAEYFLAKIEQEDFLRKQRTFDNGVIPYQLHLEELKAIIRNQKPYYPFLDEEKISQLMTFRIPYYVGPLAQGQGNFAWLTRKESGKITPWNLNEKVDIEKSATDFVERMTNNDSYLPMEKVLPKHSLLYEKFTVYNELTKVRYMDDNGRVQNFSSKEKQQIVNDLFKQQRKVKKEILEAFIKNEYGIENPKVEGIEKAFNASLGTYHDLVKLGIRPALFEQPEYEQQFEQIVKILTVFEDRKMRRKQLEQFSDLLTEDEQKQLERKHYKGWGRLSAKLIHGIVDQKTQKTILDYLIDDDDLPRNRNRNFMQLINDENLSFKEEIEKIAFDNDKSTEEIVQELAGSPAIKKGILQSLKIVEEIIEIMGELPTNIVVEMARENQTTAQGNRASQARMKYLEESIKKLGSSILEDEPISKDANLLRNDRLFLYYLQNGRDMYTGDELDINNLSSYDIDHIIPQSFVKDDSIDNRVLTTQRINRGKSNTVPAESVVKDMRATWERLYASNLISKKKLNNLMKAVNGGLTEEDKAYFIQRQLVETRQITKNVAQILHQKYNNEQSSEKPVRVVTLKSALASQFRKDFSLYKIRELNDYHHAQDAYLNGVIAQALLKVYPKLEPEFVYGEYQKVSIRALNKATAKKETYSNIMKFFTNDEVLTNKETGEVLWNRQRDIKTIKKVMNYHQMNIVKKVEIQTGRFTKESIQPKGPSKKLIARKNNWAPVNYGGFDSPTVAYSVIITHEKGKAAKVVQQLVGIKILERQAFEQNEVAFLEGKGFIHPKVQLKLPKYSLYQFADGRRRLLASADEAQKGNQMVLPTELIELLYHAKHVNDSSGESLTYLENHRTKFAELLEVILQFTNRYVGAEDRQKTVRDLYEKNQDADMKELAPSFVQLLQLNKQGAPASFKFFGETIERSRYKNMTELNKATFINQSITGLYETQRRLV
# T2: APG01868 (Enterococcus sp.)
# T2 chain: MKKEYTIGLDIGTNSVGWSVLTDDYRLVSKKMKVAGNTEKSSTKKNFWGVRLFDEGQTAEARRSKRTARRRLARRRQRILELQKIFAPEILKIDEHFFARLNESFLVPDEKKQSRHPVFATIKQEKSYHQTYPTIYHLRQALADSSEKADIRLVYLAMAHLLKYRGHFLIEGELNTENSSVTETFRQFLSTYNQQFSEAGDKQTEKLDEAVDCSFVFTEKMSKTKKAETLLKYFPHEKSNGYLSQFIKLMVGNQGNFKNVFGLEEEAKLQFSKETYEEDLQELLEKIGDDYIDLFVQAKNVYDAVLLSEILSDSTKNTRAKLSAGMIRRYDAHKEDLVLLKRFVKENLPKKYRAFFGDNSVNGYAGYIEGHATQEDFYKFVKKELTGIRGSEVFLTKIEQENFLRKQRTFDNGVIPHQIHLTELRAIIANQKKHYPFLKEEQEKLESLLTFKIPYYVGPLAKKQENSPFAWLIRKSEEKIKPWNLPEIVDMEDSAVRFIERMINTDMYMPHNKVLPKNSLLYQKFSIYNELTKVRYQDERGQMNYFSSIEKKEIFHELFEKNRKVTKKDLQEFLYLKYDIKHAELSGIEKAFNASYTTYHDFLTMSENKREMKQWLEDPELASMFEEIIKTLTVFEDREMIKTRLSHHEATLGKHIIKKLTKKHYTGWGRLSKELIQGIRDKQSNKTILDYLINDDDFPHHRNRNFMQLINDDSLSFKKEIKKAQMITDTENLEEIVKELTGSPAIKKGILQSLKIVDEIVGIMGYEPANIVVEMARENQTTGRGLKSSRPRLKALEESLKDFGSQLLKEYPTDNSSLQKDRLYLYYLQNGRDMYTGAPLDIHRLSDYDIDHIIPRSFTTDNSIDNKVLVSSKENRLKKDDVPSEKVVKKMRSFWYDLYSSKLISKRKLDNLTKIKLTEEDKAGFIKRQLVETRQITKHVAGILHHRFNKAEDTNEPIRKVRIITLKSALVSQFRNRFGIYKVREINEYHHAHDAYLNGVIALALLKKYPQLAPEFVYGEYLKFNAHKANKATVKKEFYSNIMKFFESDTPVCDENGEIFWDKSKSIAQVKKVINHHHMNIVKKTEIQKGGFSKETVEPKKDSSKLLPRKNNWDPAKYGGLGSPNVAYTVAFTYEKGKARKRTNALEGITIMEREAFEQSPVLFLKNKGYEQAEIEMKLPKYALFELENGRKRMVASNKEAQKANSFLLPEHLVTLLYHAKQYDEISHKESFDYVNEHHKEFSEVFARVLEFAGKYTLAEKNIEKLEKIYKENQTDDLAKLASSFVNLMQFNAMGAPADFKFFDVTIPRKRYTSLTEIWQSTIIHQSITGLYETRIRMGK
# T3: APG07991 (Enterococcus sp.)
# T3 chain: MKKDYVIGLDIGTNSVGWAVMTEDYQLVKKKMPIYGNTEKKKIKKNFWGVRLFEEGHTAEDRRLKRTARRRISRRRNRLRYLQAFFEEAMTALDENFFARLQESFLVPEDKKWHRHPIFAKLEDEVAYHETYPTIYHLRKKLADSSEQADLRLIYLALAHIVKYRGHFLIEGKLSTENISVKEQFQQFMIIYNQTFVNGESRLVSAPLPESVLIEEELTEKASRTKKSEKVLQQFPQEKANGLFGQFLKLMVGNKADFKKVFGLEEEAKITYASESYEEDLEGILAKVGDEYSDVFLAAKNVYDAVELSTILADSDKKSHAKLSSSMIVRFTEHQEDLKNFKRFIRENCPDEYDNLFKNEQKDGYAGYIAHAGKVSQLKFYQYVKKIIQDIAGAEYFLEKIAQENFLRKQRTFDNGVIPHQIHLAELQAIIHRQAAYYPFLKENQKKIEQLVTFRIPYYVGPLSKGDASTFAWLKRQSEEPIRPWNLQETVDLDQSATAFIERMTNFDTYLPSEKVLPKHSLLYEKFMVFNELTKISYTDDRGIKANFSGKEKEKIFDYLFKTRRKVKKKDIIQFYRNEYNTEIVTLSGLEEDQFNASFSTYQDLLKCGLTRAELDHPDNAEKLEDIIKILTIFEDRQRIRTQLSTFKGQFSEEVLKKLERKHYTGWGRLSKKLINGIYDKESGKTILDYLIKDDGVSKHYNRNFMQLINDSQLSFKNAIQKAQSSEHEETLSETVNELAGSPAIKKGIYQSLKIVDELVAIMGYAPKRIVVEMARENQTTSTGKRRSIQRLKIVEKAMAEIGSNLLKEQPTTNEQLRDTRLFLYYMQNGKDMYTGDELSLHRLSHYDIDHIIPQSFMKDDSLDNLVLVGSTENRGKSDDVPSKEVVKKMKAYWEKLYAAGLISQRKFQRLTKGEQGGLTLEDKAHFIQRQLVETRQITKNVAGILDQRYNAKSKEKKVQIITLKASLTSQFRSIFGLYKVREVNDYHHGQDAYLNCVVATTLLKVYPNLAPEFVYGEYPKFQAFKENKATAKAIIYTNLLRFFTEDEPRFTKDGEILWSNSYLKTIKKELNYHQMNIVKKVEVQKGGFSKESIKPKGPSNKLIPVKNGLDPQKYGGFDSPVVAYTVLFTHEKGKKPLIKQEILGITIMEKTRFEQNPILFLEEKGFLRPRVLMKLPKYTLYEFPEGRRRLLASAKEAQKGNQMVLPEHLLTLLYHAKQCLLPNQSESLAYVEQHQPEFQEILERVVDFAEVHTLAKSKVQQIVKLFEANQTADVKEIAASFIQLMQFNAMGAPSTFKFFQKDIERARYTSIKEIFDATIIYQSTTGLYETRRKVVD
# Columns and labels:
# Test in all cases: cell_activity; PAM SEQ ID 116
# Conditions in all cases: tags: N-terminal SV40 NLS and 3xFLAG, C-terminal nucleoplasmin NLS
# APG02998 = target: T1, APG02998
# Description: (§1) Additionally, products from PCR #2 containing Illumina overhang sequences underwent library preparation following the Illumina 16S Metagenomic Sequencing Library protocol. Deep sequencing was performed on an Illumina Mi-Seq platform by a service provider (MOGene). Typically, 200,000 of 250 bp paired-end reads (2×100,000 reads) are generated per amplicon. […] Output alignments were hand-curated to confirm insertion and deletion sites as well as identify microhomology sites at the recombination sites. All experiments were performed in human cells. The “target sequence” is the targeted sequence within the gene target. For each target sequence, the guide RNA comprised the complementary RNA target sequence and the appropriate sgRNA depending on the RGN used.
# APG01868 = target: T2, APG01868
# Description: as §1
# APG07991 = target: T3, APG07991
# Description: as §1
Binder,activity (APG02998),activity (APG01868),also measured
SGN001320 ; RelA target SGN001320 (ssRNA ; dsDNA) RNA: ACAGUGCGCAUCUCCCUGGUCACCAGUUUUAGAGCUAUGCAAAGGCAUAGCAAGUUAAAAUAAGGCUUAGUCCGUAAACAAACUUUGGCACUGUAUUCGGUGCUUUUUUU DNA 1: ACAGTGCGCATCTCCCTGGTCACCA DNA 2: TGGTGACCAGGGAGATGCGCACTGT,3.48 % editing,–,–
SGN001346 ; TRA target SGN001346 (ssRNA ; dsDNA) RNA: UCUGUGGGACAAGAGGAUCAGUUUUAGAGCUAUGCAAAGGCAUAGCAAGUUAAAAUAAGGCUUAGUCCGUAAACAAACUUUGGCACUGUAUUCGGUGCUUUUUUU DNA 1: TCTGTGGGACAAGAGGATCA DNA 2: TGATCCTCTTGTCCCACAGA,5.87 % editing,–,–
SGN001343 ; TRA target SGN001343 (ssRNA ; dsDNA) RNA: UCUGUGGGACAAGAGGAUCAGUUUUAGAGCUAUGCAAAGGCAUAGCAAGUUAAAAUAAGGCUUUGUCCGUCAUCAGCUUUUUUAAAGCAGCGCUGUUCUCGGCGCUUUU DNA 1: TCTGTGGGACAAGAGGATCA DNA 2: TGATCCTCTTGTCCCACAGA,–,41.4 % editing,–
SGN001357 ; HAO1 target SGN001357 (ssRNA ; dsDNA) RNA: CAUUGAUACAAAUUAGCCGGGUUUUAGAGUCAUGUUGAAAGCAACAUAGCAAGUUAAAAUAAGGUUUUAACCGUAAUCAACUGUAAAGUGGCGCUGUUUCGGCGCUUUU DNA 1: CATTGATACAAATTAGCCGG DNA 2: CCGGCTAATTTGTATCAATG,–,–,activity (APG07991): 13.3 % editing
SGN001317 ; RelA target SGN001317 (ssRNA ; dsDNA) RNA: ACAGUGCGCAUCUCCCUGGUCACCAGUUUUAGAGCUAUGCAAAGGCAUAGCAAGUUAAAAUAAGGCUUUGUCCGUCAUCAGCUUUUUUAAAGCAGCGCUGUUCUCGGCGCUUUU DNA 1: ACAGTGCGCATCTCCCTGGTCACCA DNA 2: TGGTGACCAGGGAGATGCGCACTGT,–,19.4 % editing,–
